Assay results from PMC12390807, “Developing and validating anti-ADA2 single-chain antibodies coupled to alkaline phosphatase for diagnosing pleural tuberculosis” (Frontiers in Immunology, 2025).

Molecular target: T1, human adenosine deaminase 2 (ADA2) (Homo sapiens, UniProt Q9NZK5)
T1 construct: adenosine deaminase 2 (ADA2), human, recombinant, produced in S2 insect cells; also called hADA2; recombinant ADA2
Assay: BLI; apparent dissociation constant; which partner was immobilised and the conditions are not told
Details: both partners purified

T1 sequence (Q9NZK5 30-511): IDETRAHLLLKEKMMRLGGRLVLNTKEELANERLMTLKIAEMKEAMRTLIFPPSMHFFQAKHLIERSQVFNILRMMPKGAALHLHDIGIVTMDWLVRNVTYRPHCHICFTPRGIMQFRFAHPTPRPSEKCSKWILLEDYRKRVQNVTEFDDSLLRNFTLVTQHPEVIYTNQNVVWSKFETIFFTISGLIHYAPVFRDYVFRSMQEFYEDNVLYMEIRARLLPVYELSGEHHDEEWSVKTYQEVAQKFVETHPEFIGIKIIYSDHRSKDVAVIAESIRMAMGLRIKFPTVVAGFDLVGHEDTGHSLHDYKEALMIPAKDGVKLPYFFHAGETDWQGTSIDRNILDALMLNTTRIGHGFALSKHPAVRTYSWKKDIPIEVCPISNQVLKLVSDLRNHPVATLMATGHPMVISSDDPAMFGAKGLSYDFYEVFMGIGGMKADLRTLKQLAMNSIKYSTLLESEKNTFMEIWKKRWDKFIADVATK

B1: H11 anti-ADA2 scFv-AP (single-chain antibody fused with bacterial alkaline phosphatase) (scFv, V domains shown)
VH: EVQLLESGGGLVQPGGSLRLSCAASGFTFSSYSMHWVRQAPGKGLEWVSSIWGVNGETDYADSVKGRFTISRDNSKNTLYLQMNSLRAEDTAVYYCAADWSLDYWGQGTLVTVSS
VL: EIVLTQSPGTLSLSPGERATLSCRASQSVSSSYLAWYQQKPGQAPRLLIYGASSRATGVPDRFSGSGSGTDFTLTISRLEPEDFAVYYCQQSSSYPWTFGQGTKVEIK
notes: The clone name H11 appears only in the ELISA methods; also called H11 scFv-AP; sc-anti-ADA2 alkaline phosphatase fusion protein; source: E. coli XL1-Blue (pAK600H vector), purified (Nickel Sepharose HiTrap / Ni-NTA Chelating Sepharose)
For B1, the Kd was < 10 nM.
